Sequences and labels used below:
B1: Flag-CNK^2–549 [Drosophila] / GST-HYP [Drosophila] (parent complex)
chain 1: AYINIAEWTPDQVTDWIKGLDESMKGYLYEFSKQEIGGRALLNIRPYELENLGMLRIGHQEIVLEAVENLRNFHYHLKNDNLQFMALHVATAAKNLHRELARNHAESTKIDTRILHDITRTIATLKPLVGSLERTPFRKQEMYREYCGNVLKCGLELATIAHRDRFALQPVPAIRQSAERLENLANFVIQDISDPMVLQPASLNLVTLKKRESELGFNIESSYNGIHRVTDIKYNSPAHNSGKIEDGDEIVQINYQTVVGWQHRTVLEHLREALPDVVLTVKKRPKHTKMFGQIYMQPYRLPSKKRNMAARWAAQMPSPRAAFLTLDTEQLATGGTGSAVPDPSKSLSSEKREVLTKANPVSSASDSDSSCSDIPTPTDPKLAAREIRLYYPKPRALLQRRNTICGCEYLSLKNSDLVVPSWHERKPGIGSPTNCDPGSPSIRDKSISFGYGLEMAARPTTCIGIAGDTSTDKARRMFHEARKLKQLTEDSQREFLVDRYKPGVSKVVRFDAKEDYVMKNEKFICNVENTILETFEPIPFADEGDEDA
chain 2: MGEETINSTQNKTRTKTTRPKAVYLWTVSDVLKWYRRHCGEYTQYEQLFAQHDITGRALLRITDSSLQRMGVTDNRDREAIWREIVKQRLKTDIMEIRDMERLNIY
B2: Myc-MEK [Drosophila] / V5-KSR [Drosophila] (parent complex)
chain 1: MSKNKLNLVLPPVNTEATVAAATVAPTPPFKTPSGTDTHSLLGKPKTSIDALTETLEGLDMGDTERKRIKMFLSQKEKIGELSDEDLEKLGELGSGNGGVVMKVRHTHTHLIMARKLIHLEVKPAIKKQILRELKVLHECNFPHIVGFYGAFYSDGEISICMEYMDGGSLDLILKRAGRIPESILGRITLAVLKGLSYLRDNHAIIHRDVKPSNILVNSSGEIKICDFGVSGQLIDSMANSFVGTRSYMSPERLQGTHYSVQSDIWSLGLSLVEMAIGMYPIPPPNTATLESIFADNAEESGQPTDEPRAMAIFELLDYIVNEPPPKLEHKIFSTEFKDFVDICLKKQPDERADLKTLLSHPWIRKAELEEVDISGWVCKTMDLPPSTPKRNTSPN
chain 2: MSSNNNAPASAPDTGSTNANDPISGSLSVDSNLVIIQDMIDLSANHLEGLRTQCAISSTLTQQEIRCLESKLVRYFSELLLAKMRLNERIPANGLVPHTTGNELRQWLRVVGLSQGTLTACLARLTTLEQSLRLSDEEIRQLLADSPSQREEEELRRLTRAMQNLRKCMESLESGTAASNNDPEQWHWDSWDRPTHIHRGSVGNIGLGNNSTASPRTHHRQHGVKGKNSALANSTNFKSGRQSPSATEELNSTQGSQLTLTLTPSPPNSPFTPSSGLSSSLNGTPQRSRGTPPPARKHQTLLSQSHVQVDGEQLARNRLPTDPSPDSHSSTSSDIFVDPNTNASSGGSSSNVLMVPCSPGVGHVGMGHAIKHRFTKALGFMATCTLCQKQVFHRWMKCTDCKYICHKSCAPHVPPSCGLPREYVDEFRHIKEQGGYASLPHVHGAAKGSPLVKKSTLGKPLHQQHGDSSSPSSSCTSSTPSSPALFQQRERELDQAGSSSSANLLPTPSLGKHQPSQFNFPNVTVTSSGGSGGVSLISNEPVPEQFPTAPATANGGLDSLVSSSNGHMSSLIGSQTSNASTAATLTGSLVNSTTTTSTCSFFPRKLSTAGVDKRTPFTSEYTDTHKSNDSDKTVSLSGSASTDSDRTPVRVDSTEDGDSGQWRQNSISLKEWDIPYGDLLLLERIGQGRFGTVHRALWHGDVAVKLLNEDYLQDEHMLETFRSEVANFKNTRHENLVLFMGACMNPPYLAIVTSLCKGNTLYTYIHQRREKFAMNRTLLIAQQIAQGMGYLHAREIIHKDLRTKNIFIENGKVIITDFGLFSSTKLLYCDMGLGVPHNWLCYLAPELIRALQPEKPRGECLEFTPYSDVYSFGTVWYELICGEFTFKDQPAESIIWQVGRGMKQSLANLQSGRDVKDLLMLCWTYEKEHRPQFARLLSLLEHLPKKRLARSPSHPVNLSRSAESVF

In one assay the parent is B1. In words: GST pull-down, immunoblot quantification; S2 cells; GST-HYP, V5-KSR, Myc-MEK co-expressed; anti-Flag (CNK) blot; parent: 1. (A western blot detects proteins with antibodies after separation by electrophoresis.)
For the variant chain 1 L267R, the ratio to parent was 0.85.

Regarding chain 1 R264E, the ratio to parent stood at 0.68.

Take chain 1 K109E: the ratio to parent was 0.81.

For chain 1 A40F, the ratio to parent was 0.79.

In the case of chain 1 M196E, the ratio to parent turned out to be 0.65.

Take chain 1 T135F: the ratio to parent turned out to be 0.84.

As for chain 1 K33D, the ratio to parent turned out to be 0.84.

Turning to chain 1 H263A, the ratio to parent was 0.95.

In the next assay the parent is B1. In words: GST pull-down, immunoblot quantification; S2 cells; only GST-HYP and Flag-CNK2–549 co-expressed; anti-Flag blot; parent: 1.
chain 2 L90D, chain 2 I97D: the ratio to parent came to 0.25.

As to chain 2 L90D, the ratio to parent stood at 0.24.

On to chain 2 I97D, for which the ratio to parent is 0.28.

The variants in the next assay derive from B1. In words: GST pull-down, immunoblot quantification; S2 cells; GST-HYP, Flag-CNK2–549 + RRKM co-expressed; anti-Flag (CNK) blot; parent: 1.
Turning to chain 2 L90D, chain 2 I97D, the ratio to parent amounted to 0.15.

chain 2 L90D: the ratio to parent worked out at 0.24.

For chain 2 I97D, the ratio to parent stood at 0.53.

Variants of B1 are the subject of the next assay. In words: GST pull-down, immunoblot quantification; S2 cells; only Flag-CNK2–549 and GST-HYP co-expressed; anti-Flag (CNK) blot; parent: 1.
In the case of chain 1 Q83E, the ratio to parent stood at 1.12.

Take chain 1 N95E: the ratio to parent came to 0.99.

As to chain 1 Y75R, the ratio to parent turned out to be 0.93.

As to chain 1 R45F, the ratio to parent stood at 0.73.

On to chain 1 N81W, for which the ratio to parent came out at 0.7.

Consider chain 1 N81E, for which the ratio to parent came to 0.9.

For chain 1 R98E, the ratio to parent was determined as 1.27.

In a further assay the parent is B1. Nature of the assay: GST pull-down, immunoblot quantification; S2 cells; Flag-CNK2–549, V5-KSR, Myc-MEK, GST-HYP co-expressed; anti-CNK blot; parent: 1.
Regarding chain 1 Q83E, the ratio to parent was determined as 0.4.

chain 1 N95E: the ratio to parent stood at 0.82.

As to chain 1 Y75R, the ratio to parent is 0.73.

As to chain 1 R45F, the ratio to parent stood at 0.79.

chain 1 N81W: the ratio to parent turned out to be 0.09.

With chain 1 N81E, the ratio to parent came to 0.24.

For chain 1 R98E, the ratio to parent was 0.77.

The variants in a further assay derive from B1. Nature of the assay: GST pull-down, immunoblot quantification; S2 cells; GST-HYP + RRKM co-expressed; anti-Flag (CNK) blot; parent: 1.
On to chain 1 A66F, for which the ratio to parent was found to be 0.87.

Regarding chain 1 V251R, the ratio to parent was 0.68.

Consider chain 1 F73R, chain 1 V251R, for which the ratio to parent amounted to 0.61.

chain 1 E249R: the ratio to parent turned out to be 0.84.

chain 1 F73R: the ratio to parent came to 0.94.

In the next assay the parent is B1. Nature of the assay: GST pull-down, immunoblot quantification; S2 cells; only Flag-CNK2–549 and GST-HYP co-expressed; anti-Flag blot; parent: 1.
As for chain 1 A66F, the ratio to parent turned out to be 0.29.

On to chain 1 V251R, for which the ratio to parent amounted to 0.07.

Turning to chain 1 F73R, chain 1 V251R, the ratio to parent worked out at 0.04.

chain 1 E249R: the ratio to parent is 0.75.

As to chain 1 F73R, the ratio to parent came to 0.91.

Variants of B1 are the subject of another assay. In words: GST pull-down, immunoblot quantification; S2 cells; GST-HYP, V5-KSR, Myc-MEK co-expressed; anti-Flag (CNK) blot; parent: 1. The source holds these as a separate data set.
Turning to chain 1 D194K, the ratio to parent was determined as 0.24.

With chain 1 M196E, the ratio to parent was determined as 0.55.

For the variant chain 1 Q199A, the ratio to parent was 0.87.

Regarding chain 1 S193A, the ratio to parent came out at 0.94.

Consider chain 1 V197E, for which the ratio to parent was found to be 0.24.

Turning to chain 1 D194K, chain 1 V197E, the ratio to parent was found to be 0.27.

In another assay the parent is B1. Nature of the assay: GST pull-down, immunoblot quantification; S2 cells; only Flag-CNK2–549 and GST-HYP co-expressed; anti-Flag (CNK) blot; parent: 1. This is another data set of the same source.
As for chain 1 D194K, the ratio to parent was determined as 0.76.

For chain 1 M196E, the ratio to parent stood at 0.82.

For chain 1 Q199A, the ratio to parent was determined as 0.83.

For chain 1 S193A, the ratio to parent came out at 0.81.

Turning to chain 1 V197E, the ratio to parent was 0.77.

For chain 1 D194K, chain 1 V197E, the ratio to parent stood at 1.03.

The variants in the next assay derive from B1. Nature of the assay: GST pull-down, immunoblot quantification; S2 cells; GST-HYP + RRKM (Ha-RASV12, Pyo-RAF, V5-KSR, Myc-MEK) co-expressed; anti-Flag (CNK) blot; parent: 1.
Regarding chain 1 D194K, the ratio to parent stood at 0.24.

Take chain 1 M196E: the ratio to parent is 0.34.

As for chain 1 Q199A, the ratio to parent was determined as 0.72.

As to chain 1 S193A, the ratio to parent turned out to be 0.86.

Consider chain 1 V197E, for which the ratio to parent stood at 0.21.

The variants in a further assay derive from B1. Nature of the assay: GST pull-down, immunoblot quantification; S2 cells; only GST-HYP and Flag-CNK2–549 co-expressed; anti-Flag blot; parent: 1. The source holds these as a separate data set.
Regarding chain 1 I122D, the ratio to parent turned out to be 0.17.

In the case of chain 1 L151D, the ratio to parent was 0.76.

For the variant chain 1 I122D, chain 1 L151D, the ratio to parent is 0.12.

The variants in the next assay derive from B1. Nature of the assay: GST pull-down, immunoblot quantification; S2 cells; GST-HYP, Flag-CNK2–549 + RRKM co-expressed; anti-Flag (CNK) blot; parent: 1. The source holds these as a separate data set.
Regarding chain 1 I122D, the ratio to parent was found to be 0.63.

With chain 1 L151D, the ratio to parent stood at 0.33.

As to chain 1 I122D, chain 1 L151D, the ratio to parent stood at 0.1.

The variants in a further assay derive from B2. In words: anti-V5 immunoprecipitation, immunoblot quantification; S2 cells; V5-KSR and Myc-MEK co-expressed; anti-MEK blot; parent: 1.
As for chain 2 Y925D, the ratio to parent came out at 1.24.

Regarding chain 2 W896R, the ratio to parent came to 0.15.

On to chain 2 E926R, for which the ratio to parent amounted to 1.51.

With chain 2 M902D, the ratio to parent is 0.9.

For chain 2 K903D, the ratio to parent was determined as 0.46.

The variants in another assay derive from B2. Nature of the assay: anti-V5 immunoprecipitation, immunoblot quantification; S2 cells; V5-KSR and Myc-MEK co-expressed; anti-Myc (MEK) blot; parent: 1.
chain 2 R913E: the ratio to parent stood at 1.31.

The variants in a further assay derive from B2. Described as above. The source holds these as a separate data set.
Regarding chain 1 E323R, the ratio to parent was 0.82.

The record behind these values is paper PMC11257983 (2024).
